In doi:10.1101/2021.09.12.459968:
Where “and” joins values, the source holds several entries; their conditions need not be identical. Equal values may be shown once.

Tests used:
[1] = molecular target: T1, full-length mouse NLRP3 (FLAG-mScarlet tag removed), double ring cage (mouse), Q8R4B8; experiment: cryo-EM structure; conditions: remark: other sources report otherwise
T1 chain: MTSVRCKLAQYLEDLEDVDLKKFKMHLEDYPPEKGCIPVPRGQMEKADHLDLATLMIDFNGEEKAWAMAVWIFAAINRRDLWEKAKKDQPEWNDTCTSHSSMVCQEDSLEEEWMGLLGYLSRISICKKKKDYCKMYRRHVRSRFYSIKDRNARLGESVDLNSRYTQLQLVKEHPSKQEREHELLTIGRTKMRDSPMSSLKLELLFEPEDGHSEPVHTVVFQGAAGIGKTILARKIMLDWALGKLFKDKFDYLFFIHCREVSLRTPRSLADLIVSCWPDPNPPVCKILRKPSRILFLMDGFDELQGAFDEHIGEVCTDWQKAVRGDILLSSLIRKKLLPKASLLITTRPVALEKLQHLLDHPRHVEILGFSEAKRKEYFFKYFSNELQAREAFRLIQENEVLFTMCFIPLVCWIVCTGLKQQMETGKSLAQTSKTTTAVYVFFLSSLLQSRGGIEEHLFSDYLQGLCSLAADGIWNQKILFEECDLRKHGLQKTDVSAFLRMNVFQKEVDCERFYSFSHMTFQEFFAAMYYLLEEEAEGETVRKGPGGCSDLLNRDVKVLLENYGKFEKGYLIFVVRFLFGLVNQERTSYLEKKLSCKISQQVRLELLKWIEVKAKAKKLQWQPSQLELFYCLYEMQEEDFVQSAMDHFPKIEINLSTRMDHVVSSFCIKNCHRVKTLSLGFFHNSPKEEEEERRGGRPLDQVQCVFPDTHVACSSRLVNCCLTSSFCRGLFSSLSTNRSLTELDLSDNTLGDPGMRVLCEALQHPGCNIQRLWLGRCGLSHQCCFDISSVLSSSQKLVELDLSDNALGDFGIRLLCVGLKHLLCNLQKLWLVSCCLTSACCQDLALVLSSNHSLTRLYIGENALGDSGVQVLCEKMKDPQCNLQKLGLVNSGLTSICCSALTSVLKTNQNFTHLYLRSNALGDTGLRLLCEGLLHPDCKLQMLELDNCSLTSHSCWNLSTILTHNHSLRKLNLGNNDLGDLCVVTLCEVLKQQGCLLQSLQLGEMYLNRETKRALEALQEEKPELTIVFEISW

[2] = molecular target: T1, full-length mouse NLRP3 (FLAG-mScarlet …); experiment: cryo-EM structure; conditions: remark: other sources report otherwise

B1: full-length mouse NLRP3 (FLAG-mScarlet tag removed), double ring cage, Q8R4B8 1-1033 (natural protein)
chain: MTSVRCKLAQYLEDLEDVDLKKFKMHLEDYPPEKGCIPVPRGQMEKADHLDLATLMIDFNGEEKAWAMAVWIFAAINRRDLWEKAKKDQPEWNDTCTSHSSMVCQEDSLEEEWMGLLGYLSRISICKKKKDYCKMYRRHVRSRFYSIKDRNARLGESVDLNSRYTQLQLVKEHPSKQEREHELLTIGRTKMRDSPMSSLKLELLFEPEDGHSEPVHTVVFQGAAGIGKTILARKIMLDWALGKLFKDKFDYLFFIHCREVSLRTPRSLADLIVSCWPDPNPPVCKILRKPSRILFLMDGFDELQGAFDEHIGEVCTDWQKAVRGDILLSSLIRKKLLPKASLLITTRPVALEKLQHLLDHPRHVEILGFSEAKRKEYFFKYFSNELQAREAFRLIQENEVLFTMCFIPLVCWIVCTGLKQQMETGKSLAQTSKTTTAVYVFFLSSLLQSRGGIEEHLFSDYLQGLCSLAADGIWNQKILFEECDLRKHGLQKTDVSAFLRMNVFQKEVDCERFYSFSHMTFQEFFAAMYYLLEEEAEGETVRKGPGGCSDLLNRDVKVLLENYGKFEKGYLIFVVRFLFGLVNQERTSYLEKKLSCKISQQVRLELLKWIEVKAKAKKLQWQPSQLELFYCLYEMQEEDFVQSAMDHFPKIEINLSTRMDHVVSSFCIKNCHRVKTLSLGFFHNSPKEEEEERRGGRPLDQVQCVFPDTHVACSSRLVNCCLTSSFCRGLFSSLSTNRSLTELDLSDNTLGDPGMRVLCEALQHPGCNIQRLWLGRCGLSHQCCFDISSVLSSSQKLVELDLSDNALGDFGIRLLCVGLKHLLCNLQKLWLVSCCLTSACCQDLALVLSSNHSLTRLYIGENALGDSGVQVLCEKMKDPQCNLQKLGLVNSGLTSICCSALTSVLKTNQNFTHLYLRSNALGDTGLRLLCEGLLHPDCKLQMLELDNCSLTSHSCWNLSTILTHNHSLRKLNLGNNDLGDLCVVTLCEVLKQQGCLLQSLQLGEMYLNRETKRALEALQEEKPELTIVFEISW
In the case of B1, the stoichiometry N [1] is reported as 12 and 14 and 16 and the stoichiometry N [2] is reported as 12.
